The results in this text go back to US20260258115A1 (MAPP BIOPHARMACEUTICAL, published 2026).

Where a chain is given by its changes, count along the chain named.

The target of experiment [1] is RSV F on RSV subtype B virus (mKate-RSV B 18537) (respiratory syncytial virus B 18537, UniProt P13843 26-574). Put plainly: cell-based or functional assay.
Experiment [2] addresses RSV F on RSV subtype A virus (mKate-RSV A2) (respiratory syncytial virus A2, UniProt P03420 26-574). The experiment can be described thus: cell-based or functional assay.
Experiment [3] deals with T1, RSV prefusion F (preF), subtype B (respiratory syncytial virus subtype B).
T1 construct: also called Prefusion subtype B
The experiment can be described thus: BLI, IgG.

Experiment [4] concerns the target T2, RSV postfusion F (postF), subtype A (respiratory syncytial virus subtype A, UniProt P03420 26-513).
T2 construct: also called Postfusion subtype A; F deltaFP
Put plainly: BLI, IgG.

Experiment [5] has as its target RSV F on RSV-A2 virus (Respiratory syncytial virus, RSV-A2, UniProt P03420 26-574). The experiment can be described thus: cell-based or functional assay.
Experiment [6] has as its target RSV postfusion F (postF), F ΔFP (Respiratory syncytial virus, UniProt P03420 26-513). Put plainly: BLI, IgG on anti-human IgG sensor, 100 nM antigen.
Experiment [7] deals with RSV prefusion F (preF), DS-Cav1 (Respiratory syncytial virus, UniProt P03420 26-513). The experiment can be described thus: BLI, IgG on anti-human IgG sensor, 100 nM antigen.

B1: ADI-14342 (antibody, V domains shown)
VH: QVTLKESGPVLVKPTETLTLTCTVSGFSLSNAKMGVSWIRQPPGKALEWLAYISSNDEKSYSTSLKSRLTISKDTSKSQVVLTMTNMDPVDTATYYCARILLYDSSGYYLWYFDLWGRGTLVTVSS
VL: DIQVTQSPSSLSASVGDRVTITCRASQRITSYLNWYQHKPGKAPKLLIFAASSLHSGVPSTFSGSGSGTDFTLTISSLQPEDFATYYCQQSYSTPWTFGQGTKVEIK
notes: full-length IgG; also called Ab 10
With B1, in experiment [1], the “Neut IC50 subtype B” value turned out to be 8.27 µg/mL. Also, the “Neut IC50 subtype A” value in experiment [2] was 1.75 µg/mL. The Kd in experiment [3] amounted to 26.1 nM; in experiment [4], 0.495 nM.

B2: ADI-14353 (antibody, V domains shown)
VH: QVQLVQSGAEVKKPGSSVKVSCKASGGTFSSYTISWVRQAPGQGLEWMGRIKPIIGIANNAQRFKGRVTITAEKSTGTAYMELSSLTSEDTAVYYCARGGYDYYGMDVWGQGTTVTVSS
VL: QSALTQPASVSGSPGQSITISCTGTSSDVGGYNYVSWHQQHPGKAPKLLIYDVSNRPSGVSNRFSGSKSGNTASLSISGLQAEDEADYYCSSFTSTSTPYVFGTGTQLTVL
notes: full-length IgG; also called Ab 21
As to B2, the “Neut IC50 subtype B” value in experiment [1] amounted to 14.6 µg/mL. In addition, the dissociation constant Kd in experiment [3] was found to be 12.6 nM; in experiment [4], 0.26 nM.

B3: ADI-41703 (antibody, V domains shown)
VH: EVQLLESGSGLVKPLQTLSLTCAVSGGSISSGGYSWSWIRQPPGKGLEWIGYIYPSGSTYYNPSLKSRVTMSIDRSKNQFSLRLTSVTAADTAVYYCARGDGNDFWSADSSHAFAIWGQGTMVTVSS
VL: EIVMTQSPGTLSLSPGERATLSCRASQIVGNSYLAWYQQKPGQAPRLLIYGASSRATGIPERFSGSGSGTDFTLTISRLEPEDFAVYHCQQYGSSPWTFGQGTKVEIK
notes: also called Ab 895; Antibody Number 895
Turning to B3, in experiment [5], the “Neutralization IC50 (RSV subtype A)” value is more than 25 µg/mL. Further, the dissociation constant (Kd) amounted to 0.843 nM in experiment [6] and 4.2 nM in experiment [7].

B4: ADI-41737 (antibody, V domains shown)
VH: QVQLQESGPGLVKPSQTLSLTCTVSGGSMISGDFYWSWIRQPPGKGLEWIGYIYYSGTTYYSPSLKSRVSMSIDTSKSQFSLKLSSVTAADTAVYYCARKYSYGEKAYHYWGQGTLVTVSS
VL: B3 VL with M4L, I28T, S32N, E61D, P81S, Q90H, S94T, W97Q
notes: also called Ab 897; Antibody Number 897
Consider B4, for which the “Neutralization IC50 (RSV subtype A)” value in experiment [5] was more than 25 µg/mL. Also, the equilibrium dissociation constant (Kd) in experiment [6] is 1.58 nM; in experiment [7] it was 3.58 nM.

B5: ADI-41799 (antibody, V domains shown)
VH: QVQLVQSGAEVKKPGSSVKVSCQASGGTFSTHALSWVRQTPGHGLEWVGGVLPVFGATKYPRKFQGRVTITADKSTNTAYMELSSLRSDDTAVYYCARVVVHSTITTAKDFFSGVHDIWGQGTMVTVSS
VL: DIRMTQSPSTLSASVGDRVTITCRASQTVSSWLAWYQQKPGKAPKLLIYQASSLESGVPSRFSGSGSGTEFTLTISGLQPDDFATYFCQHYNSYSPVTFGGGTKVEIK
notes: also called Ab 910; Antibody Number 910
As for B5, the “Neutralization IC50 (RSV subtype A)” value in experiment [5] was more than 25 µg/mL. Also, the dissociation constant (Kd) in experiment [6] worked out at 1.1 nM; in experiment [7], 3.28 nM.

B6: ADI-41778 (antibody, V domains shown)
VH: QVQLVESGGGQGQPGRSLRLSCAASGFTFDDYAMHWVRQVPGKGLEWVSGINWNSGYIGYADSVKGRFTISRDNAKNSLYLQMNSLRAEDTALYYCAKANNPIDSSGYNRGFDTWGQGTLVTVSS
VL: QSALTQPRSVSGSPGQSVTISCTGTSSDVGGYNYVSWYQQHPGKAPKLMIYDVNKRPSGVPDRFSGSKSDNTASLTISGLQAEDESDYFCCSYAGTYTWVFGGGTKVTVL
Turning to B6, in experiment [5], the “Neutralization IC50 (RSV subtype A)” value is more than 25 µg/mL. In addition, the results for the Kd in experiment [6] and in experiment [7] were 0.504 nM and 2.75 nM, respectively.

B7: ADI-41768 (antibody, V domains shown)
VH: EVQLVESGGGLVQPGRSLRLSCAASGFTFGDYAMHWVRQAPGKGLEWVSGITWNSGRVVYADSVKGRFTISRDNAKNSLYLQINSLRAEDTALYYCVKGSCNGGICYSADYWGQGTLVTVSS
VL: NFMLTQPHSVSESPGKTVTISCTRSSGSIARNFVHWYQQRPGSSPTTVIYEDNQRPSGVPGRFSGSIDSSSNSASLTISGLRSEDEADYYCQSYDSDNWVFGGGTKLTVL
notes: also called Ab 900; Antibody Number 900
As to B7, the “Neutralization IC50 (RSV subtype A)” value in experiment [5] was more than 25 µg/mL. Moreover, the equilibrium dissociation constant (Kd) in experiment [6] worked out at 0.338 nM; in experiment [7], 1.61 nM.

B8: ADI-41701 (antibody, V domains shown)
VH: QVQLVQSGAEVKKPGESLKISCQASGYSFTTYWIGWVRQTPGKGLEWMGIIYPGDSDTRYTPSFQGQVTISADKSISTAYLHWSSLKASDTAMYYCARLSGGYTFGFDYWGLGTLVTVSS
VL: NFMLTQPHSVSESPGKTVTISCTRSSGNIARYYVQWYQQRPGRAPTTVIYEDDQRPSGVPDRFSGSIDRSSNSASLTISGLKTEDEADYYCQSYDASNYVFATGTKVTVL
B8: in experiment [5], the “Neutralization IC50 (RSV subtype A)” value was more than 25 µg/mL. Moreover, the Kd in experiment [6] is 0.289 nM; in experiment [7] it was 1.93 nM.

B9: ADI-41743 (antibody, V domains shown)
VH: EVQLVESGSGLVKPSQTLSLTCSVSGGSISSGGYSWSWIRQPPGKGLEWIGFIYNTGSTYSNPSLKSRLTLSVDRSNNRFSLKLNSVTAADTGVYFCARSGNVRQCDATGHCSTNYYFEYWGLGTLVTVSS
VL: EIVMTQSPATLSVSPGERATLSCRASQSVSSNLAWYQQKPGQAPRLLIYGASTRATGIPARFSGSGSGTEFTLTISSLQSEDFAVYYCQQHDDWPPLTFGGGTKVEIK
notes: also called Ab 898; Antibody Number 898
For B9, the “Neutralization IC50 (RSV subtype A)” value in experiment [5] was more than 25 µg/mL. The Kd in experiment [6] turned out to be 1.27 nM; in experiment [7], 5.45 nM.

B10: ADI-41677 (antibody, V domains shown)
VH: QVTLKESGPALVKPTQTLTLTCTFSGFSLSTSRMCVSWIRQPPGKALEWLARIDWDGDIYYSTSLRTRLTISKDTSKNQVVLTMTNMDPVDTATYYCARTSIYATGGYYLYYSDYWGQGTLVTVSS
VL: EIVMTQSPSSLSASVGDRVTITCRASQSIASYVNWFQQKPGKAPKLLIYAASNVHSGVPSRFSGSGSGTGFTLTISSLQPEDSAIYYCQQSYTTPWTFGQGTKLEIK
On to B10, for which the “Neutralization IC50 (RSV subtype A)” value in experiment [5] was more than 25 µg/mL. The Kd in experiment [6] is 0.339 nM; in experiment [7] it was 1.28 nM.

B11: ADI-14386 (antibody, V domains shown)
VH: EVQLVESGGGLVQPGGSLRLSCAASRFTFSSYAMSWVRQAPGKGLEWVSGIGASGGTTYYADSVKGRFTISRDNSKNTVYLQMNSLRAEDTAVYYCARCEYYYGSGSAGYYFDYWGQGTLVTVSS
VL: SYELTQPPSVSVSPGQTASITCSGDKLGSKFAFWYQQKPGQSPVLVIFQDVKRPSGIPERFSGSNSGNTATLTISGTQAMDEADYYCQAWDSGTAVFGGGTKVTVL
notes: full-length IgG; also called Ab 54
As for B11, the values for the Kd in experiment [3] and in experiment [4] were 3.04 nM and 1.32 nM, respectively.

B12: ADI-14389 (antibody, V domains shown)
VH: EVQLVESGGGLVKPGGSLRLSCAASGFTFINAWMAWVRQAPGKGPEWVGRIKSRADGGTTDYAAPVKGRFTISRDDSKNRLFLQMDSLKTDDTAVYFCTTGVRALRFYNGMDVWGQGTTVTVSS
VL: ETTLTQSPSSLSASIGDRVTITCRAGQSISSFLNWYQQKPGKAPKLLIYAASTLQSGVPSRFSGSKSGTDFTLTISSLQPEDFATYYCQQSYHTFTFGPGTKVEIK
notes: full-length IgG; also called Ab 56
As to B12, the values for the dissociation constant Kd in experiment [3] and in experiment [4] were 81.5 nM and 22.9 nM, respectively.

B13: ADI-41794 (antibody, V domains shown)
VH: EVQLQQWGAGLLKPSETLSLTCAVYGGSFSGYYWSWIRQPPGKGLEWIGEINHSGSTNYNPSLKSRVTISVDTSKNQFSLKLSSVTAADTAVYYCARGTRTIVYCDGDCYQPWAYHYYGMDVWGQGTTVTVSS
VL: QSVVTQEPSVSAAPGQKVTISCSGGSSNIGNNYVSWYQHLPGTAPKLLIYDNDKRPSGIPDRFSGSKSGTSATLGITGLQTGDEADYYCGTWDSSLSAVVFGGGTKLTVL
Regarding B13, in experiment [5], the “Neutralization IC50 (RSV subtype A)” value is more than 25 µg/mL. For the same molecule, the Kd in experiment [6] was determined as 3.01 nM; in experiment [7], 3.31 nM.

B14: ADI-41720 (antibody, V domains shown)
VH: QVQLVESGGGVVQPGRSLRLSCAASGFTFSSYGMHWVRQAPGKGLEWVSVIWFDGSKKYYEDSVKGRFTISRDNSKNTLYLEMNSLRAEDTAVYYCAREAPVRLGELSLYGYFDYWGQGTLVTVSS
VL: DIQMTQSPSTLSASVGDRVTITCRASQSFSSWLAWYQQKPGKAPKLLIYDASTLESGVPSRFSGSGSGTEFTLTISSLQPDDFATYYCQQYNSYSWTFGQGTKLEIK
notes: also called Ab 896; Antibody Number 896
For B14, in experiment [5], the “Neutralization IC50 (RSV subtype A)” value was more than 25 µg/mL. The dissociation constant Kd came to 1.17 nM in experiment [6] and 22 nM in experiment [7].

B15: ADI-41781 (antibody, V domains shown)
VH: QVQLVQSGAEVRKPGASVKVSCKAFGYTFTNFAISWVRQAPGQGLEWMGWIGPYNGDTDYEQKFQGRVTMTADTSSSTVFMELRSLRFDDTAVYYCARGKGSTIPLGYYIGMDVWGQGTTVTVSS
VL: ETTLTQSPSSLSASVGDRVTMTCRASQGISNYLAWYQQKPGKPPKLLIYLASSLQSGVPSRFSGSGSGTDFTLTISSLQPEDVATYYCQKYNSAPLTFGGGTKLEIK
Turning to B15, the “Neutralization IC50 (RSV subtype A)” value in experiment [5] is more than 25 µg/mL. Also, the Kd in experiment [6] worked out at 0.653 nM; in experiment [7], 3.46 nM.

B16: ADI-41803 (antibody, V domains shown)
VH: RCTLQQWGAGRVKPSETLSLTCAVYRGPFSGYYWSWIRQPPGKGLEWIGEINLGETNPGGSTHYNPSLRSRLSMSIDTSKKQFSLRVNSVTAADTAVYYCTRGPVSRIYDTSGSYSLNYYGMDVWGQGTTVTVSS
VL: DIRMTQSPSSLSASVGDRVTITCRASQGIRNDLGWYQQKPGRAPERLIYPASSLQGGVPSRFIASGSGTEFTLTISNLQPEDFATYYCLQHNSYPRTFGQGTKVEIK
notes: also called Ab 912; Antibody Number 912
On to B16, for which the “Neutralization IC50 (RSV subtype A)” value in experiment [5] was more than 25 µg/mL. Besides, the Kd was found to be 0.711 nM in experiment [6] and 1.99 nM in experiment [7].

B17: ADI-41678 (antibody, V domains shown)
VH: EVQLVESGGGVVQPGGSLRLSCAASGFTFRTYGMHWVRQAPGKGLEWVAVISYDGSNKYYADSLMGRFTISRDNSKNTLYLQMNSLRAEDTAVYYCAKCFVPGSGGWYEYYFDYWGQGTLVTVSS
VL: QSVLTQPPSASGSPGQSVTISCTGTSSDVGGYNYVSWYQQHPGKAPKLMIYEVSKRPSGVPDRFSGSKSGNTASLTVSGLQAEDEADYYCSSYAGINNSVLFGGGTKLTVL
For the molecule B17, in experiment [5], the “Neutralization IC50 (RSV subtype A)” value is more than 25 µg/mL. Besides, the Kd in experiment [6] stood at 1.17 nM; in experiment [7], 2.92 nM.
